From PMC4357719, “Roles of Rad51 paralogs for promoting homologous recombination in Leishmania infantum”

Columns and labels:
[1] = biological target: T1, LiRad51-3 (in 3-4-6 complex);LiRad51-4 (in 3-4-6 complex);LiRad51-6 (in 3-4-6 complex) (Leishmania infantum;Leishmania …, UniProt E9AHR7;A4HUT5;A4I499 1-687;1-518;1-649, ||); assay: competition EMSA; 0-40 nM complex; mixture; 25 mM MOPS pH 7.0, 0.2% Tween-20, 1 mM CaCl2, 2 mM DTT; 25 nM 32P-DNA; 37 C 10 min, then 0.2% glutaraldehyde 15 min; 8% TBE acrylamide gel; conditions: protein: recombinant;recombinant;recombinant; copies: 1;1;1; label: 32P on strand 1; fork 1:2
[2] = biological target: T1, LiRad51-3 (in 3-4-6 complex);LiRad51-4 …; assay: competition EMSA; 0-40 nM complex; preferred substrate in mixture; 25 mM MOPS pH 7.0, 0.2% Tween-20, 1 mM CaCl2, 2 mM DTT; 25 nM 32P-DNA; 37 C 10 min, then 0.2% glutaraldehyde 15 min; 8% TBE acrylamide gel; conditions: protein: recombinant;recombinant;recombinant; copies: 1;1;1; label: 32P on strand 3 (JYM1745); D-loop: 1:2 with unpaired bubble, 3 paired to 2 in the bubble

B1: splayed arm (JYM925/JYM926) (structured_DNA)
DNA 1: GGGTGAACCTGCAGGTGGGCAAAGATGTCCTAGCAATGTAATCGTCAAGCTTTATGCCGT
DNA 2: ACGCTGCCGAATTCTACCAGTGCCAGCGACGGACATCTTTGCCCACCTGCAGGTTCACCC
B1: binds [1].

B2: D-loop (JYM1395/JYM1396/JYM1745) (structured_DNA)
DNA 1: GCCAGGGACGGGGTGAACCTGCAGGTGGGCGGCTGCTCATCGTAGGTTAGTATCGACCTATTGGTAGAATTCGGCAGCGTCATGCGACGGC
DNA 2: GCCGTCGCATGACGCTGCCGAATTCTACCACGCTACTAGGGTGCCTTGCTAGGACATCTTTGCCCACCTGCAGGTTCACCCCGTCCCTGGC
DNA 3: AAGATGTCCTAGCAAGGCACCCTAGTAGC
B2: binds [2].
